Reference: patent US20250026797A1 (GOVERNMENT OF THE UNITED STATES OF AMERICA AS REPRESENTED …, published 2025)
Residue numbers refer to the chain shown, from its start. Names and notes keep the numbering of the source. No end group written: not given here. *: point of attachment. Biotin = O=C1N[C@H]2[C@H](CS[C@H]2CCCCC(=O)*)N1

T1: PGVVKSK(biotin) peptide (PGXVKSK(biotin), X = Val)
T1 construct: also called Val at P3
T1 peptide: PGVVKSK(Biotin)

T2: NH2-PGLVKSK(biotin)-COOH peptide (SMILES CC(C)C[C@H](NC(=O)CNC(=O)[C@@H]1CCCN1)C(=O)N[C@H](C(=O)N[C@@H](CCCCN)C(=O)N[C@@H](CO)C(=O)N[C@@H](CCCCNC(=O)CCCC[C@@H]1SC[C@@H]2NC(=O)N[C@@H]21)C(=O)O)C(C)C)
T2 construct: Immobilised on streptavidin biosensors in BLI; in solution in the yeast display sorts; also called Nt-Pro peptide; target peptide
T2 peptide: H-PGLVKSK(Biotin)-OH

T3: FGLVKSK(biotin) peptide (XGLVKSK(biotin), X = Phe)
T3 construct: also called Nt-Phe peptide
T3 peptide: FGLVKSK(Biotin)

T4: VGLVKSK(biotin) peptide (XGLVKSK(biotin), X = Val)
T4 construct: also called Nt-Val peptide
T4 peptide: VGLVKSK(Biotin)

T5: MGLVKSK(biotin) peptide (XGLVKSK(biotin), X = Met)
T5 construct: also called Nt-Met peptide
T5 peptide: MGLVKSK(Biotin)

T6: PGRVKSK(biotin) peptide (PGXVKSK(biotin), X = Arg)
T6 construct: also called Arg at P3
T6 peptide: PGRVKSK(Biotin)

T7: PGFVKSK(biotin) peptide (PGXVKSK(biotin), X = Phe)
T7 construct: also called Phe at P3
T7 peptide: PGFVKSK(Biotin)

T8: PGMVKSK(biotin) peptide (PGXVKSK(biotin), X = Met)
T8 construct: also called Met at P3
T8 peptide: PGMVKSK(Biotin)

T9: PSLVKSK(biotin) peptide (PXLVKSK(biotin), X = Ser)
T9 construct: also called Ser at P2
T9 peptide: PSLVKSK(Biotin)

T10: PGSVKSK(biotin) peptide (PGXVKSK(biotin), X = Ser)
T10 construct: also called Ser at P3
T10 peptide: PGSVKSK(Biotin)

T11: PVLVKSK(biotin) peptide (PXLVKSK(biotin), X = Val)
T11 construct: also called Val at P2
T11 peptide: PVLVKSK(Biotin)

B1: wild-type human GID4 fragment (residues 116-300), purified with N-terminal His-tag (other)
chain: GVATSLLYSGSKFRGHQKSKGNSYDVEVVLQHVDTGNSYLCGYLKIKGLTEEYPTLTTFFEGEIISKKHPFLTRKWDADEDVDRKHWGKFLAFYQYAKSFNSDDFDYEELKNGDYVFMRWKEQFLVPDHTIKDISGASFAGFYYICFQKSAASIEGYYYHRSSEWYQSLNLTHVPEHSAPIYEFR
notes: Expressed in E. coli BL21(DE3), nickel-column purified; also called wild-type GID4; native GID4; not shown: N-terminal six-histidine tag and TEV protease recognition site from the pET21(+) construct
B2: yeast-surface displayed GID4 A252V variant (residues 116-300, HA-tag, (GGGGS)x3 linker, c-Myc-tag) (designed binder)
chain: YPYDVPDYAGGGGSGGGGSGGGGSGVATSLLYSGSKFRGHQKSKGNSYDVEVVLQHVDTGNSYLCGYLKIKGLTEEYPTLTTFFEGEIISKKHPFLTRKWDADEDVDRKHWGKFLAFYQYAKSFNSDDFDYEELKNGDYVFMRWKEQFLVPDHTIKDISGVSFAGFYYICFQKSAASIEGYYYHRSSEWYQSLNLTHVPEHSAPIYEFREQKLISEEDL
notes: also called A252V (Sort 3ii); not shown: yeast-surface display fusion partner encoded by the pCTCON2 plasmid
B3: yeast-surface displayed GID4 S253T variant (residues 116-300, HA-tag, (GGGGS)x3 linker, c-Myc-tag) (designed binder)
chain: B2 chain with V161A, S162T
notes: also called S253T (Sort 3i); not shown: yeast-surface display fusion partner encoded by the pCTCON2 plasmid
B4: yeast-surface displayed GID4 S283F variant (residues 116-300, HA-tag, (GGGGS)x3 linker, c-Myc-tag) (designed binder)
chain: B2 chain with V161A, S192F
notes: also called S283F (Sort 3i); not shown: yeast-surface display fusion partner encoded by the pCTCON2 plasmid
B5: GID4 A252V variant (residues 116-300), purified with N-terminal His-tag (designed binder)
chain: B1 chain with A137V
notes: not shown: N-terminal six-histidine tag and TEV protease recognition site from the pET21(+) construct
B6: GID4 A252V-S253T double mutant variant (residues 116-300), purified with N-terminal His-tag (designed binder)
chain: B1 chain with A137V, S138T
notes: also called A252V-S253T mutant; not shown: N-terminal six-histidine tag and TEV protease recognition site from the pET21(+) construct
B7: GID4 A252V-S253T-S283F triple mutant variant (residues 116-300), purified with N-terminal His-tag (designed binder)
chain: B1 chain with A137V, S138T, S168F
notes: as for B5
B8: GID4 S253T variant (residues 116-300), purified with N-terminal His-tag (designed binder)
chain: B1 chain with S138T
notes: as for B5
B9: GID4 S283F variant (residues 116-300), purified with N-terminal His-tag (designed binder)
chain: B1 chain with S168F
notes: as for B5
B10: GID4 A252V-S283F double mutant variant (residues 116-300), purified with N-terminal His-tag (designed binder)
chain: B1 chain with A137V, S168F
notes: also called A252V-S283F mutant; not shown: N-terminal six-histidine tag and TEV protease recognition site from the pET21(+) construct

Key:
[1] = target: T1, PGVVKSK(biotin) peptide …; experiment: BLI, biotinylated peptide on streptavidin biosensor
Experimental: (§1) The measurements were analyzed with instrument software Data Analysis HT (Version 12).
(§2) Previous works on GID4, as well as other N-degron proteins reported significant impact of the second position of the peptide (P2) on binding affinity. The impact of the P2 on the top variants were evaluated with BLI assay using PGLVKSK(biotin) and PXLVKSK(biotin) peptides, where X is Arg, Asp, Val, Phe, Ser, Met, or Pro. […] S283F variant and, especially, A252V variant retain higher level of BLI response compared to wild-type when Val or Ser is at P2. S283F variant retains 40% of signal with Ser at P2 and A252V variant retains >65% with Val and Ser. This retention of binding response with Val and Ser at P2, relative to Gly at P2, is maintained with the triple mutant the double mutants, with over 58% of signal retained for these variants when Ser is at P2. The A252V-S283F mutant and the triple mutant retained >55% of signal when Val is at P2.
(§3) Due to the depth of the binding pocket of GID4, the binding is impacted by the identity of residues in the target peptide beyond P2. […] Similar to evaluating the impact of P2, the impact of P3 was evaluated via BLI with PGLVKSK(biotin) peptide and PGXVKSK(biotin) peptides, where X is Arg, Asp, Val, Phe, Ser, Met, or Pro. […] Asp and Pro are particularly not favorable at P3, as almost no BLI signal was measured. The BLI response of variants with the rest of the peptides, however, increased.

[2] = target: T2, NH2-PGLVKSK(biotin)-COOH peptide; experiment: yeast-surface display, FACS with biotinylated peptide and streptavidin-R-phycoerythrin
Experimental: After expression, aliquots of cells were pelleted at 3000 RPM for 3 min and suspended to 1 mL for sort samples and 100 μL for control samples such that OD₆₀₀=1 in 0.1% BSA in 1× phosphate-buffered saline (PBS, 137 mmol/L NaCl, 2.7 mmol/L KCl, 10 mmol/L sodium phosphate dibasic, 1.8 mmol/L potassium phosphate monobasic, pH 7.4). The samples were prepared with or without 10 μmol/L of NH₂-PGLVKSK(biotin)-COOH peptide, which has biotin attached to the C-terminal lysine residue. Cells were incubated, while rotating with mixing for 90 min at room temperature. Cells were then pelleted at 3600 RPM for 3 min at 4° C. and suspended in 1 mL of 0.1% BSA in PBS with 10 μg/mL of α-c-Myc (9E1) antibody conjugated to Alexa Fluor® 647 and 25 μg/mL of streptavidin conjugated to R-phycoerythrin (FIG. 1c). For control samples, no or single fluorescent probe was included in 100 μL total volume. After incubation in the dark for 40 min on ice, the cells were washed with 0.1% BSA in PBS and kept on ice until running on cell sorter.
Cells were sorted by fluorescence-activated cell sorting (FACS) on Sony SH800 cell sorter with 100 μm chip. Control samples were used to set up compensation and gate for single cells that show binding to both fluorescent probes (Q2 in FIG. 1d). A total of 70345 cells were sorted into two 5 mL FACS tubes with 1 mL of SD-CAA in each and then combined in 14 mL Falcon cell culture tube for growth with additional 2 mL of SD-CAA media and 10 μg/mL of Carb. After ˜36 hrs of growth at 30° C. and 300 RPM, cells were subcultured to expression media and the selecting and sorting repeated, with modification of using 1 μmol/L of the peptide and collecting 10000 cells from gated areas. A third round of expression, selection, and sorting was done using 0.5 μmol/L of the biotinylated peptide. In each round of cell sorting and amplification, ˜10⁷ cells were pelleted and frozen for plasmid extraction.

[3] = target: T3, FGLVKSK(biotin) peptide …; experiment: BLI, biotinylated peptide on streptavidin biosensor, 10 µmol/L protein
Experimental: (§4) High-throughput kinetic measurements were taken using Octet Red96e system with Octet Streptavidin (SA) Biosensors in 96-well format. The highest concentration of protein was prepared by mixing 25% of the total volume with 0.4% BSA in dialysis buffer (1×PBS) and completing subsequent dilutions with 0.1% BSA in dialysis buffer. The SA biosensors were hydrated for 10 min in the dialysis buffer with 0.1% BSA then loaded with NH₂-XXXVKSK(biotin)-COOH (where X are residues specified in the experiment and figures) by moving the sensors into wells with 10 μmol/L of the biotinylated peptide and incubating for 2 min. Unbound peptide was removed by incubating in the dialysis buffer with 0.1% BSA for 2 min in the next wells. The association of GID4 wild-type and variants were then measured by incubating the biosensors in wells with the proteins for 10 min and then dissociation measured by moving the sensors into new wells with dialysis buffer with 0.1% BSA for another 10 min. All wells contained 200 μL of specified solution. The measurements were analyzed with instrument software Data Analysis HT (Version 12).
(§5) The association and dissociation of the GID4 wild-type and the six variants to the PGLVKSK(biotin) peptide were evaluated using BLI. BLI is an optical technique that can measure interaction between protein in solution ad peptide immobilized on the biosensor tip. […] The S283F variant has an apparent faster dissociation rate compared to the other singe mutation variants. The apparent faster dissociation rate due to S283F mutation is also present in A252V-S283F mutant, when compared to the A252V-S253T mutant. […] The increase in the BLI response and shift in dissociation rate can be beneficial as an Nt-Pro recognizing protein; differences in off-rate can be used as method to distinguish different Nt-amino acids.

[4] = target: T4, VGLVKSK(biotin) peptide …; experiment: as above
Experimental: as §4, §5

[5] = target: T5, MGLVKSK(biotin) peptide …; experiment: as above
Experimental: as §4, §5

[6] = target: T2, NH2-PGLVKSK(biotin)-COOH peptide; experiment: as above
Experimental: as §4, §5

[7] = target: T6, PGRVKSK(biotin) peptide …; experiment: BLI, biotinylated peptide on streptavidin biosensor
Experimental: as §1, §2, §3

[8] = target: T7, PGFVKSK(biotin) peptide …; experiment: as above
Experimental: as §1, §2, §3

[9] = target: T8, PGMVKSK(biotin) peptide …; experiment: as above
Experimental: as §1, §2, §3

[10] = target: T9, PSLVKSK(biotin) peptide …; experiment: as above
Experimental: as §1, §2, §3

[11] = target: T10, PGSVKSK(biotin) peptide …; experiment: as above
Experimental: as §1, §2, §3

[12] = target: T11, PVLVKSK(biotin) peptide …; experiment: as above
Experimental: as §1, §2, §3

Binder	% of steady-state BLI response relative to PGLVKSK(biotin) [1] [%]	binding result [2]	binding result [3]	binding result [4]	binding result [5]	fold steady-state BLI response against wild-type GID4 [6] [fold]	% of steady-state BLI response relative to PGLVKSK(biotin) [7] [%]	% of steady-state BLI response relative to PGLVKSK(biotin) [8] [%]	% of steady-state BLI response relative to PGLVKSK(biotin) [9] [%]	% of steady-state BLI signal retained relative to PGLVKSK(biotin) [10] [%]	% of binding response relative to PGLVKSK(biotin) [11] [%]	% of steady-state BLI signal retained relative to PGLVKSK(biotin) [12] [%]	binding result [6]	% of steady-state BLI response relative to PGLVKSK(biotin) [11] [%]	binding result [12]	binding result [7]	binding result [8]	binding result [9]	binding result [1]
B1	> 50																		
B2		binds																	
B3		binds																	
B4		binds																	
B5	> 60		binds	binds	binds	1.7	> 60	> 60	> 60	> 65	< 31	> 65							
B6	> 69		binds	binds	binds		> 69	> 69	> 69	> 58			binds	> 51	binds				
B7	> 69		binds	binds	binds	> 2.3	> 69	> 69	> 69	> 58		> 55		> 51					
B8			binds	binds	binds						< 31		binds			binds	binds	binds	binds
B9			binds	binds	binds					40	< 31		binds		binds	binds	binds	binds	binds
B10	> 69		binds	binds	binds		> 69	> 69	> 69	> 58		> 55	binds	> 51					
